Reference: the DeepSol protein solubility set

Test: soluble on expression in E. coli; label from the status in PepcDB or PDB records

Row | Sequence | soluble on expression in E. coli
1 | MSLIAPLLVIEDEPAVMSFVRRALERGGYTVVGANSGMQALELLKGQQFQGIISDMRTPGNVDGGGVYHWIREHRPELANRIVFITGDIVNEETVAVLKETGAPCVEKPFRVQDLIATVENTIGKPQQETEGHHHHHH | soluble
2 | MSLIDPKRARLPIIRQCTLLRLNRSGVYYRSVPQSEANLELMRLIDAQFLETPYYGSRQMTWHLRRLGHEVGRKRVRRLMAIMGLRAIYQKPRTSVPHPEHRKYPYLLRDLVIDRPNQVWCSDITYIPMKRGFLYLVAIMDWFTRKVLSWRLSNTMDAEFCIEALRDALMRYGPPEIFNTDQGSQFTTPRFTGILEERQIRISMDGRGRWLDNVFIERLWRSLKYECVYLHAFETESELRVGLTKWITHYNGQRPHTALAGRTPDEAYHGVPTPSGPGLTPDQMANSNAVRMAAEGHHHHHH | soluble
3 | MSLIHAGSMIDGVAKKIKTKQTIVIEDGVIIDVKSGYTKAKPNDIVIDLKNTTVTPGWMDLHVHLGSQSSPQSYSEDFYLNPEDFAYRSVPWIEKTLLAGFTTVRDVGGEVVLAARNAVNNGYINGPRIFSAGRSIGTTGGHADPSSGLNRKFRGDPGPHDAVVNGVDDAMKAVRQRYKDGSDLIKITATGGVLSVAKNGQNPQFTEEEIRAIVETAKDYEMHVAAHAHGVEGMQRAIRAGVRTIEHGTLMDRPTARLMKKYGTYYVPTVSAGEFVYEKAKEPGYFPEIVRPKALEIGPKIKKTLGMAYEEGVKIAFGTDMGVSPHGENADEFVYMVEAGMKPIDAIFAATSIAAEVLNQEDLGKIKKGMKADIVAVNGNPLKDIAVTKNVVFVMKDGVVYKQPINLKEGHHHHHH | soluble
4 | MSLIHIAIAEDDFRVAQIHERLIKQLDGFKIIGKAANAKETLALLKEHKADLLLLDIYMPDELGTALIPDIRSRFPEVDIMIITAATETRHLQEALRAGIAHYLIKPVTADKFRQVLLQYKEKRKLLMSQPKGIITITTDPNSSSVDKLAAALEHHHHHH | soluble
5 | MSLIKQEHMHPPPRAITPLPPATHQITLEEYKEREKKDYYRDATKDASVKKVVLSLLKDHPGMWQNGNRFQPEKWRALGVDVYQRTGQIVRVNDMRKMLVMGKSVLKKKIAICIRDKKLDRAATEKDLWYWEYYRHFLYYRETLGQFEANLRGEEWTGEDQIQDEDDIIYDGMLDGDLSNSSHNFAGHGADDDYQVEEVQYSEAGFRRPESVRGGDSYFGHGPPPQMVMGSSASNFSSATQSHSRNRKSSSIDHTEVDRSAQHIAEQAKRLFLQYPEKSNLIRETMFKTILAFDDPSADYQNVGEIFDDLAAQEAAKKRKRAENRAQREQQ | not soluble
6 | MSLILLNTITDQVSVSETQTKSPRLWMPERVLFTPAALGEDWGQQILARVQSLNLPIEELSQNRLKGLRGESERDTYNIAKRTLAVVTAPPSSFKLSPIPPSADWQFHIAEGCPAHCQYCYLAGSLSGPPVIRVFANLPQILENLANYEQQGKTTTFEVSCYTDPLGIEHLTGSLAECIRYFGTRTNAHLRWVSKFDAVDGLLDLPHNGNTRCRMSVNAAPISGKFEGGTASVASRLNALRRLALPQERGGGGYPVGLVIAPIMPIDDWQMHYSRLFDQINEALDFDCNFTFELISHRFTPGSKEVLQAWYPQSKLEMDEAKRSVKRNKFGGTKYVYEKDTMKALRSFFESEISRRFPNAETLYWTEGHHHHHH | soluble
7 | MSLIRAMQKSDYEAVYKLWCEIKGFGIRSIDDSKENIENFLDRNPNLSVVAVIDEEIVGSILCGHDGRTGGFYHVCVHKDHRKKGIAHEMAKFCLEALKAQKINKIALIAFKNNDLGNEFWKHYGFTLREDANYYDLSLNEYNQTSFNAEGHHHHHH | soluble
8 | MSLITDLFKRRIHQMEEKKKKNIGFNIIKSDPTDGHGGFGGGSLSLDNVSPVFVDVEAGDAHVDIGAMHARSTVEKGIKFLTNQEDVPNGKPYWLVWVTIDRKQEGPYYAGVTACFMTVDREIRRGYKLLPEHVNRLDKSIKRHIIVDHMDDKSKGILADFLKNHDMGMWERAEDQLKKDLASSEGHHHHHH | soluble
9 | MSLITQRSSMIGVVTAGFENPLRARLLSDLMAVLGQRAFTPLVTNADDPQQLRQALERLLSYRVAGLVMTSASPPLSVARQYLAHRIPVVMINREANLAGADVVVSDNAAGAAEAAQRLVHAGARRLAFVGPHTASFSARSRADAFAHALQRGNMSGATLASVIDTASDTHACGLDAAQQLFAAGHRPDGVFCSSDLLALGVIDAARAAFGLRVPDDVRVIGFDDIPAAAYHAYRLTTLRQDTQGLAHAAVDLLADRISAFDGASRTRVVPVTHVVRHSCAEGHHHHHH | soluble
10 | MSLIYPEITGKSGEHLRLKTLESVWIQGKLRMWGRWSYIGDGKTGNMFNQLLTSKKLTKTAINEALRRMKKAGLDKPELEAFLRDMINGNQKSWLAHCTDSEALIIDRVIGEVLAGYPGLLNVLSQRYVGRGMTKRKMAELLNDAHPEWSLRTCERRIEHWLKVAEFILYKPMVMAFGIEKKVIAFEGHHHHHH | soluble
11 | MSLIYTLTLNPSVDYKIVLKEFQEESLNYALNNNFFAGGKGINVSTVLKNLGKPSTALGFLGGFTGDYIRFSLDSRGIKNDFIKIKYDTRLNIKMIANGRETEINANSPDISENEFELLKNKLKNLANNSTLVMSGSVPAALGEDAYNEIANSISNDVKLIIDTSGKPLRKILRLNPFLIKPNIYELEDLFNAKFDSTKELIKIGKNLVESGVQNIIISMGSDGAIFIGGKNVAFRAFVPKINFVSTIGAGDSVIAGFVYAFDNGSTLEDSFKFGVAAGTATALKGNLCEFQDVKKMLCQIRVEDIYTSEGHHHHHH | soluble
12 | MSLKAIVYKGPKMLEVVEIDKPIPKEGQVLVKVNRAGICGGDLGIYKGTHPRAKAPLVFGHEFSGVVEEDGKIFKKGTKVTVNPIYSCGDCVPCNSGDQHVCNTLRLVGIDRDGAMSEYVVVDENKLYELGDEMSDELGALIEPIAVAVHSVREPGYKPGDNAVVFGGGPIGLAIAFVLKKFGCTNLTIIEADDKRIAMGKDFGFDLRDAKGLDLEALKAEKTGGNGFDFVFDCAGVEPVAAQLIKASKVRGKIVIVAGYKTPTMFPVNEGMFKEVAFEFVRVYRDKDYEIAVELAKDEPMFEKLVTHVLPVEQAQEGFDLLLTPGTGAMKVLFKEGHHHHHH | not soluble
13 | MSLKCIAIDLDGTLLNKESVISAENREAIKRAVDAGILVTICTGRATFDVKALLDDLDIPIIAANGGTIHDTGYRLISRTLMDQEAGKAIADYLLSKNIYFEVYTDDHLLSPFDGEAKLHAELDILKSANPNEQTDDLWQGAMTQFKQFGIKPIPHIESVFDGGENIYKLLCFSFDMDKLKQAKEELKHHKKLAQTSSGKHIIEILPASSGKGRALTKLADIYGIETQDIYAIGDSPNDLSMFEVAGHRIAMENAIDELKEKSTFVTKSNDENGVAYFIDQLLSGQYAEGHHHHHH | soluble
14 | MSLKDQDIFELIEPSTDINDIIMPENTKELLENILKQQDKKVLERLHSWGIKSNKNIEAKIIFYGPAGTGKTMSALAMAKSMKKSVLSFDCSKILSKWVGESEQNVRKIFDTYKNIVQTCKQSPILLLNEADQFLSTRVDGSSGSDKMHNQMQNIFLEQIERFSGVIIATTNFLESLDSAFSRRFDYKIEFKKPDFKDRLKIWEKFLPKKALFEKDFDINILSNYELSGAQILMVVKNTALKVAVSKDGVFKIQDFIESIQKELNSSFDKSKIVGFEGHHHHHH | soluble
15 | MSLKDRYILAFETSCDETSVAVLKNDDELLSNVIASQIESHKRFGGVVPEVASRHHVEVITACIEEALAEAGITEEDVTAVAVTYGPGLVGALLVGLSAAKAFAWAHGLPLIPVNHMAGHLMAAQSVEPLEFPLLALLVSGGHTELVYVSEAGDYKIVGETRDDAVGEAYDKVGRVMGLTYPAGREIDELAHQGQDIYDFPRAMIKEDNLEFSFSGLKSAFINLHHNAEQKGESLSTEDLCASFQAAVMDILMAKTKKALEKYPVKTLVVAGGVAANKGLRERLATEITDVNVIIPPLRLCGDNAGMIAYASVSEWNKENFANLDLNAKPSLAFDTMEEGHHHHHH | soluble
16 | MSLKDTFSVLLIEDSNADYRLIQEYLGESQSPSFQISRSTDFSAGLSFITNESPDLVMLDLSLPDRTGLEALSEIKRKFPQIPVIICSGAEDKDITVNALQIGAQDYVYKGKFDSYSLSRSLVFAYERNRLALELEKKSVFEQESEERYRLFFQYNPHPAFLFEHDSLEILEINRAVLEKYGYEEKDLIGKSILQIFELSDFDKVKQEIIFFQFGANQASSFVHKKKNGEKLIADTTVYKFRYQNQILDLAVVTDITEMVRNRESILATLAEKDALIQEIHHRVKNNMQIMISLLNLQADNAMSRNLTAKELYNLLKDTESRVFSMSLVHNELYKSNDLSHVDFHSYLNMLLENLWNLYGVGLKIKHLVEAQGLVLSMNIAISLGLIVCELVTNAIKHAFPDGYEGLLKIFARCELGSTIVTIEDNGKGIPKEMISKNHETLGLQLVNILTKQIQGKLHLEVLDPGTKFEIRFPEQKGTVQRKEGHHHHHH | not soluble
17 | MSLKFIGECRDRWPIAVLCRTLEVTRAAYYRFAGRGPTVTEIKQTQIIQAVKEIRLEKHHDAYGSPRMQRAIVKRGVVCCRNTVAKCMRHAGIQANRRTKFRISTTDSNHDQPIASNLLGQNFTTEAINRVWLTDITYIPTQEGSTYLCAFVDLHSRKIVSWKTSRNMDSELVVGAFDQALTFRKPNAGLIVHSDRGSQFASDHFRRRLAASGLVQSMSRRGNCYDNAPMESFFKSYKTEEAQQIYDTHEHATRGVSDYIERFYNPHRLHSSLGYLSPIDFEQAIKEPSLVSESEGHHHHHH | not soluble
18 | MSLKGAQILVVEDELIVGMMIKLKLAKMGYCVSCMASTGADAVAMVEKVRPELVLMDIRLKGSLDGVEAAMMIRKISNIPIVFITADSSLETRERAELACPQGFLLKPFMDEELGSLVRSVFSNSMGGASAVNANEGHHHHHH | not soluble
19 | MSLKGNLDVIPQPQEIVLARDTTPFIIDRSTTIVYPATNEKMHRTADFLATFIKEMTGTEVHVSDKEKSSNAIILAVDSTMGHPEGYKLQITPEKVLLTGGSEAGVFYGIQTIHKALPILKDGKVAAALPAGTVTDFPRFRYRGFMIDVGRHFFPVSYLKQMIDLMALHNINYFHWHLTEDQGWRIEIKKYPKLTEIGSKRDSTIIDWETKKFDGKPHSGFYTQDEAREIVRYAADRFITVVPEIDLPGHTTAALASYPELGCTGGPYKVLCSFGVFPDVLCAGNDQTLQFTKDVLDEIMDIFPSEYIHIGGDECPKSRWEKCPKCQAKIKELGIKALPKHSKENQLQTYFMSELEKEINAHGRRMLGWDEVLEGGLTPNSTIMSWRGIQGGIEAARQHHDVIMTPIQRLYFSNPRINKMTGFEWMNRVYNFEPVPAELTDAEKKFVIGTQGCIWTEWTADSTKMEWQILPRMAALSEIQWTLPEHKNFERFMERLPEMLKIYSSLDYGYREDVFAADTLKTHKEGHHHHHH | soluble
20 | MSLKGVSYTSEQKTRIVLEMLKEEETLAQIASRYQVTSQTLNSWKRQFLANASLAFEPAKALQEYKDQIQSKEQEIEELQKQLGKSVAEKEWLAKKLEGLDLSNKKALVESKPETISIARQCELLGISRSAYYYKPISLSRANLQIMHAIGEIATDNAEYGYRFIHQQLLEDGYRIGKERVLKYMRVMNLRALYPKKRKHTSIHNLEYKRYPYLLSQYHNSKKQVVVDRPGEVWSGDITYIRMNGGFMYLCAIIDWHSKAILAYKISNTMDASLAVDTLKEALQTHPAPRIFNSDQGSQYTSEEHTRLLEEHQIAISMNGKGRSIDNIAIERFFRTLKHSSIYINDYRTIKELKEGIKNYIHKYNFKRFHSSIEYRKPMNVYLEAQTVAEGHHHHHH | not soluble
